Key:
[1] = system: (Na,K)ATPase large cytoplasmic loop; assay: Coimmunoprecipitation in yeast cells; format: binding, rat
Method: In Glucosyl Ura-His-Trp- and galactosyl Ura-His-Trp-media, yeast cells transformed with the constructs prepared in Example 1 were grown, and the cells were harvested by centrifugation at 3,000×g for 5 minutes. The harvested cells were resuspended in yeast lysis buffer (YLB: 50 mM Tris pH 8.0, 5 mM MgCl2, 150 mM NaCl, 50 mM NaF, 2 mM ZnCl2, protease inhibitor cocktail) and subsequently, the suspension was added to glass beads and vortexed. Thereto was added RIPA buffer (10 mM Tris pH 8.0, 100 mM NaCl, 1 mM EDTA, 1% NP4O, 0.5% sodium deoxycholate, 0.1% SDS) and then, the whole mixture was centrifuged at 10,000×g, 4° C. for 30 minutes.
To the cell extracts as prepared above, IgG sorb (The Enzyme Center, Inc.) was added and then, the mixture was incubated at 4° C. for 30 minutes and centrifuged at 10,000×g for 5 minutes. Thereto was added affinity-purified anti-HA 12CA5 monoclonal antibodies and then, the resulting mixture was incubated for 3 hours or overnight at 4° C. 50% protein A agarose solution (Roche, USA) was added to the above immunocomplex and the whole mixture was incubated at 4° C. for 4 hours. After centrifugation for 5 seconds, the obtained pellets were washed with RIPA buffer and washing buffer (1 M NaCl, 10 mM Tris pH 8.0, 0.1% NP4O), respectively. The pellets were resuspended in 2×SDS sample buffer and then, the suspension was loaded onto SDS-PAGE gel. […]

[2] = system: (Na,K)ATPase large cytoplasmic loop; assay: Coimmunoprecipitation in COS-7 cells; format: binding; conditions: HA-tagged HRF
Method: Subsequently, to examine such interaction in mammalian cells, COS-7 cells were grown in DMEM^+ culture (Dulbeccos modified Eagles medium containing 10% fetal bovine serum, 100 units/ml penicillin and 100 units/ml streptomycin). The cells were transfected with N-terminal HA-tagged HRF constructs inserted to pCDNAneo vector (Invitrogen). COS-7 cell extracts were immunoprecipitated according to the method of Florkiewicz, et al. (1998). To detect the interactive protein, rabbit polyclonal anti-(Na,K)ATPase antibodies were added thereto.

RBL-2H3 cells [3] = assay: Intracellular Na+ concentration (sodium green fluorescence); format: cell-based; conditions: IgE-sensitized RBL-2H3 cells, HRF 10˜20 μg/ml
Method: RBL-2H3 cells were loaded onto 24-well plate at 3.0×10^5˜1×10^6 cells/ml and cultivated at 37° for 18 hours. Hams F-12 culture (phenol red or serum-free 2 mM sodium bicarbonate and 10 mM HEPES, pH 7.3) was mixed with sodium green tetracetate dye (Molecular Probes, Eugene, Oreg.) at a final concentration of […] and the mixture was loaded onto the cells (Amorino and Fox, 1995). The cells were sensitized with 0.2 μg/ml of rat IgE (Serotec) for 45˜60 minutes and then, cultivated at room temperature for about 20˜60 minutes and washed three times with F-12 medium. Subsequently, thereto was added HRF (10˜20 μg/ml) in histamine releasing buffer and then, fluorescence was measured with microtiter reader (FL600, Bio-tek Instruments, Inc., Winooski, Vt.) at 485/530 nm for 15 minutes. The mixed solution of Na^+ and K^+ at an appropriate concentration was measured using gramicidin D (Sigma) as calibration (Amorino and Fox, 1995).

RBL-2H3 cells [4] = assay: Intracellular Ca2+ concentration (Fluo-3-AM); format: cell-based
Method: RBL-2H3 cells were cultivated according to the same procedure as in Example 6 and then, washed with Krebs-Ringer buffer (KRH, 125 mM NaCl, 1.2 mM KH2PO4, 1.2 mM MgSO4, 6 mM glucose, 2 mM CaCl2, 25 mM Hepes, pH 7.4). Subsequently, they were incubated with 2 μM Fluo-3-AM (Molecular Probes, Eugene, Oreg.) and KRH buffer containing 0.2% BSA for 30 minutes and then, the culture was corrected with DMEM complete medium for 10˜30 minutes. Subsequently, the cells were washed with KRH buffer and sensitized according to the same procedure as in Example 6. After the sensitization, the cells were treated with HRF, anti-IgE (Serotec) and each inhibitor together with histamine releasing buffer (100 mM NaCl, 0.4 mM MgCl2, 5 mM KCl, 5.6 mM glucose, 0.1% BSA, 25 mM Hepes, pH 7.4) in the presence or absence of Ca^2+. The fluorescence of fluo-3AM was measured at 488/515 nm using laser scanning confocal microscope.

PC12 cells [5] = assay: [3H]-dopamine release by HRF; format: cell-based
Method: It was examined whether or not HRF functions as the inhibitor of (Na,K)ATPase enzyme to stimulate neurotransmitters release. For this purpose, HRF was added to the culture solution of PC12 cells (Abu-Raya, et al., 1999) and then, changes in [^3H]-labeled dopamine release induced in basal and K^+-depolarized state by addition of HRF were measured. PC12 cells from passage numbers 5 to 15 were cultured in RPMI-1640 medium containing 10% horse serum, 5% fetal bovine serum, penicillin (100 U/ml) and streptomycin (100 μg/ml) with the supply of 5% CO2 at 37° C.
To measure [^3H]-dopamine release, one day prior to the experiment, the cells ([…]) were cultured in 12-well dish coated with poly-L-lysine (10 μg/ml). The fresh medium containing [^3H]-dopamine (0.5 μCi/ml) was loaded thereto and then, the cells were further cultured at 37° C. for 3 hours. They were washed 2 or 3 times with 1 ml of PBS(1×) per well. To Krebs Ringer (KR) buffer (125 mM NaCl, 5 mM KCl, 2 mM CaCl2, 10 mM HEPES, 1.2 mM MgSO4, 1.2 mM KH2PO4, 6 mM glucose, 5 mM NaHCO3), ascorbic acid (0.2 mg/ml), pargyline (0.6 mg/ml) and despiramine (2 μM) were added. Each 1 ml of the mixture was loaded with HRF and the reaction was proceeded at 37° C. for 20 minutes. The release in the depolarization state was measured in KR buffer containing 50 mM KCl, and in Ca^2+-free medium, was measured in KR buffer prepared by removal of CaCl2 with the addition of 0.5 mM EGTA.
Upon completion of the reaction, the radioactivity of the released dopamine was measured after centrifuging the culture solution at 4° C., 1,000×g for 10 minutes. The cells were solubilized with 0.5 N NaOH and then, the radioactivity within the tissue was measured. The release rate (%) of dopamine was calculated by [radioactivity of the supernatant/(radioactivity of the supernatant+radioactivity within the tissue)×100].
As compared with the increase in basal release, the increase in K^+-stimulated release was shifted to left, but the extent thereof was relatively small.

PC12 cells [6] = assay: Inhibition of HRF-stimulated dopamine release by HRF-binding peptide; format: cell-based; conditions: 15 μg/ml of HRF
Method: In order to confirm whether the peptides blocking histamine release by HRF also block neurotransmitters release in nerve cells, the peptide of SEQ ID No. 14 (p2) was tested for its effects on dopamine release stimulated by HRF according to the substantially same procedure as in Example 16.

B1: HRF: recombinant full-length rat HRF overexpressed in E. coli; protein consisting of 172 amino acids (protein)
chain: MIIYRDLISHDELFSDIYKIREIADGLCLEVEGKMVSRTEGAIDDSLIGGNASAEGPEGEGTESTVVTGVDIVMNHHLQETSFTKEAYKKYIKDYMKSLKGKLEEQKPERVKPFMTGAAEQIKHILANFNNYQFFIGENMNPDGMVALLDYREDGVTPFMIFFKDGLEMEKC
modifications: left off: small tags and cut ends
notes: recombinant full-length rat HRF overexpressed in E. coli; protein consisting of 172 amino acids
interaction with (Na,K)ATPase large cytoplasmic loop, coimmunoprecipitation [1]: interaction between HRF and (Na,K)ATPase large cytoplasmic loop could be confirmed
interaction with (Na,K)ATPase large cytoplasmic loop, coimmunoprecipitation [2]: interacted with (Na,K)ATPase large cytoplasmic loop
effect on intracellular Na+ concentration (RBL-2H3 cells [3]): increased the intracellular Na^+ concentration
effect on intracellular Ca2+ concentration (RBL-2H3 cells [4]): intracellular Ca^2+ concentration was increased
HRF concentration at which dopamine release was steeply increased and the cells detached and reached to death (PC12 cells [5]): ≥ 30 µg
K+-stimulated dopamine release in depolarization (PC12 cells [5]; 50 mM KCl): dose-dependently increased K^+-stimulated dopamine release
basal release of dopamine (PC12 cells [5]; basal state): dose-dependently increased the basal release of dopamine
dopamine release at HRF 10 μg (PC12 cells [5]; basal, HRF 10 μg): increased to the extent similar to the K^+-stimulated release in depolarization
increase of dopamine release (PC12 cells [6]): about 110%
